According to patent US20210198647A1 (TEXAS TECH UNIVERSITY SYSTEM, published 2021):
One block for each binder: values may come before it. Ends that are not written are not given here.

Experiments:
Experiment in all cases: cell-based or functional assay
[1] = biological target: Neurolysin (Nln) as used for the A50 and Amax values of Tables 2 and 5
[2] = biological target: recombinant human thimet oligopeptidase (R & D systems, product number 3439-ZN) (human, UniProt P52888 1-689, limits assumed)
Chain of recombinant human thimet oligopeptidase (R & D systems, product number 3439-ZN) (P52888 whole entry): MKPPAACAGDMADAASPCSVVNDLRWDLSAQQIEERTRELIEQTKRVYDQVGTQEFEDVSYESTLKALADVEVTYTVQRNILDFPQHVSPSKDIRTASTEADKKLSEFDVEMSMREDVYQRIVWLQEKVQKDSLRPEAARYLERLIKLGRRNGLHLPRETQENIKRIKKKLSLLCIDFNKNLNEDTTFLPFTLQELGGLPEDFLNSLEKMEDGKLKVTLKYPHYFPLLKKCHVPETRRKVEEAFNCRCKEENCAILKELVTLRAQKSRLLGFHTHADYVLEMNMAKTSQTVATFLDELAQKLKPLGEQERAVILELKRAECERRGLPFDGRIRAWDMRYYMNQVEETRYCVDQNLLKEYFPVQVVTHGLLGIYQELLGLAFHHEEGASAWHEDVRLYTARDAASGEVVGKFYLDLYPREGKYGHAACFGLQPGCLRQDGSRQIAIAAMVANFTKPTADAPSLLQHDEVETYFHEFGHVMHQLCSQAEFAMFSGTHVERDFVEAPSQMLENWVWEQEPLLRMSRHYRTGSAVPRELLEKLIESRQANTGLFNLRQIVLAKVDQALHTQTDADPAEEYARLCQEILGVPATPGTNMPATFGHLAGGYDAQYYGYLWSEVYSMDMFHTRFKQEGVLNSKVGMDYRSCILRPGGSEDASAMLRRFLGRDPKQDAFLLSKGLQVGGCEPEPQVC

[3] = biological target: recombinant human angiotensin converting enzyme (R & D systems, product number 929-ZN) (human, UniProt P12821 30-1261)
Chain of recombinant human angiotensin converting enzyme (R & D systems, product number 929-ZN) (P12821 30-1261 limits assumed): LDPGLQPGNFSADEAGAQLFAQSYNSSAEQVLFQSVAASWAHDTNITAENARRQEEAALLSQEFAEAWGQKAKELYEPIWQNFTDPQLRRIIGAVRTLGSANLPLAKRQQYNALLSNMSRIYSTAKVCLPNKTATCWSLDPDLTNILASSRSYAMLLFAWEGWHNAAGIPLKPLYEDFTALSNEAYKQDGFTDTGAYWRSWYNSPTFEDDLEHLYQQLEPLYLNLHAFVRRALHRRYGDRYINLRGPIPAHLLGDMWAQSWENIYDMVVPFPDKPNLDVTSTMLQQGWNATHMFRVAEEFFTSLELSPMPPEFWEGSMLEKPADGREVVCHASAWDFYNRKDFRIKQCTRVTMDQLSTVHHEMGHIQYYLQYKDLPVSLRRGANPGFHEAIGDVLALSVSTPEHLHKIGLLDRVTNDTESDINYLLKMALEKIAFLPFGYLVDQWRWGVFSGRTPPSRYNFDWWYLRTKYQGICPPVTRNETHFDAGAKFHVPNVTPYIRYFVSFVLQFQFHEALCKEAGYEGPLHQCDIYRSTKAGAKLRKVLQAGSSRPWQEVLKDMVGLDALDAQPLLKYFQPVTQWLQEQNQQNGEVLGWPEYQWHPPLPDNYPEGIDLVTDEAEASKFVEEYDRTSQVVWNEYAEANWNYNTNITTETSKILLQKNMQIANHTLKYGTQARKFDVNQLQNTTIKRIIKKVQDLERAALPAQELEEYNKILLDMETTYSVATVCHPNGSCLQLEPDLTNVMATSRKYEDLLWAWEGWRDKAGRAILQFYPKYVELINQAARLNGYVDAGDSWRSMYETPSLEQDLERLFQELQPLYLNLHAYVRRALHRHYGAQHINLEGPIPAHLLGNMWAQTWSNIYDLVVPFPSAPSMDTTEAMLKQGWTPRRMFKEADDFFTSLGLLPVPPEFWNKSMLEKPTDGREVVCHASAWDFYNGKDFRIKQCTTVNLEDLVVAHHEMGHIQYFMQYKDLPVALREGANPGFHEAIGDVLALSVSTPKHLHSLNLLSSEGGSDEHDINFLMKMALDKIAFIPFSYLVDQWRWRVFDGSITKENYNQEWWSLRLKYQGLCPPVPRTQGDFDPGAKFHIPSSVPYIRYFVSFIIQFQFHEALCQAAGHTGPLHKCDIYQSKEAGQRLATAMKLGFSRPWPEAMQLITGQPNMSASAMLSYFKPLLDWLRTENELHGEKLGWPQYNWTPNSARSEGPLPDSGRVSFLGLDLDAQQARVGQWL

[4] = biological target: recombinant human ACE2 (R & D systems, product number 933-ZN) (human, UniProt Q9BYF1 18-740)
Chain of recombinant human ACE2 (R & D systems, product number 933-ZN) (Q9BYF1 18-740 limits assumed): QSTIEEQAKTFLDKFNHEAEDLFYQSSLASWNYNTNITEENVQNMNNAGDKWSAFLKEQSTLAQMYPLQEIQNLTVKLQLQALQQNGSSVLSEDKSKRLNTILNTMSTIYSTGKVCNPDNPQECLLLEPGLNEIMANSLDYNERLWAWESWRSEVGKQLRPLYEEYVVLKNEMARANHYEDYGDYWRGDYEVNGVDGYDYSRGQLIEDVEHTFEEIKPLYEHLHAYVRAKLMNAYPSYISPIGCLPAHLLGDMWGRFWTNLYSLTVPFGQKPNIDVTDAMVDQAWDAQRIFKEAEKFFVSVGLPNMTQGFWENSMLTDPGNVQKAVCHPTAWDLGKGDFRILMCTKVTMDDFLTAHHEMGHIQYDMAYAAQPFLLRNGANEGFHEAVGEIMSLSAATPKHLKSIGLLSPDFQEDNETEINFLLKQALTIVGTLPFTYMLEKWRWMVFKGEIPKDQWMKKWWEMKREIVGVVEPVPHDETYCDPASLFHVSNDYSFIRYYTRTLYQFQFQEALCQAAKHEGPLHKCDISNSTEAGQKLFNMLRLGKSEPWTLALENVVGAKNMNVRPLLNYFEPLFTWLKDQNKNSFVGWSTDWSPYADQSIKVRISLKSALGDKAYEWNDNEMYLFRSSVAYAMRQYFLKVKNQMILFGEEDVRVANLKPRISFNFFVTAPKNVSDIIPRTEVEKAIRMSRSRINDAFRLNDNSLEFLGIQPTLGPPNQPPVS

[5] = biological target: recombinant human neprilysin (R & D systems, product number 1182-ZNC) (human, UniProt P08473 52-750)
Chain of recombinant human neprilysin (R & D systems, product number 1182-ZNC) (P08473 52-750 limits assumed): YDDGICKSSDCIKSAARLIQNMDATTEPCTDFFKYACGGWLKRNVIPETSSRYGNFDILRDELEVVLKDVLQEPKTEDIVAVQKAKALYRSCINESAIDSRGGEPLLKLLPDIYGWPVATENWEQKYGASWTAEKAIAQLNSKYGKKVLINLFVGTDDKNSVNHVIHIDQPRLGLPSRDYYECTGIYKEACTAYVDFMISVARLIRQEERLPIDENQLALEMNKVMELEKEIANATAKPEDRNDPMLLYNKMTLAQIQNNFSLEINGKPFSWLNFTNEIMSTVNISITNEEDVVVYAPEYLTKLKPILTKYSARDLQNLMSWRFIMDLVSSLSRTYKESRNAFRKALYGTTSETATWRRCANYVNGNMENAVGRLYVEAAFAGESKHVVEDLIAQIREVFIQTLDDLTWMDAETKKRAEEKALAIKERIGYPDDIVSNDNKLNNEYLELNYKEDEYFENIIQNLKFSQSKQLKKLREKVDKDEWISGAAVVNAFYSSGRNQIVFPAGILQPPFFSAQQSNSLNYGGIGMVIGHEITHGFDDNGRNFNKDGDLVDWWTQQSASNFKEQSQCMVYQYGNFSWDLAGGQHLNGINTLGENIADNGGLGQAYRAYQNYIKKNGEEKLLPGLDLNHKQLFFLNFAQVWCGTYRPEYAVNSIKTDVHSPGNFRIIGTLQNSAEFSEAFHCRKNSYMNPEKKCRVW

Amax [1]: 502%
B1: His-Pro (peptide)
peptide: HP

inhibition of activity at 300 µM (quenched fluorescent substrate hydrolysis) [2]: 15.6%
inhibition of activity at 300 µM (quenched fluorescent substrate hydrolysis) [3]: 12.2%
inhibition of activity at 300 µM (quenched fluorescent substrate hydrolysis) [4]: 10.9%
inhibition of activity at 300 µM (quenched fluorescent substrate hydrolysis) [5]: 1.6%
B2: NlnA#2, NSC 523374, D,L-histidyl-D,L-histidine (peptide)
peptide: His-His
modifications: also: mixture of D- and L-His at both positions

A50 [1]: 130 µM
Amax [1]: 573%
B3: His-Phe (peptide)
peptide: HF

inhibition of activity at 300 µM (quenched fluorescent substrate hydrolysis) [2]: 25.9%
inhibition of activity at 300 µM (quenched fluorescent substrate hydrolysis) [3]: 22.6%
inhibition of activity at 300 µM (quenched fluorescent substrate hydrolysis) [4]: 13.4%
inhibition of activity at 300 µM (quenched fluorescent substrate hydrolysis) [5]: 2.9%
Amax [1]: 467%
B4: NlnA#1, NSC 374121, L-histidyl-L-tyrosine (peptide)
peptide: HY

Amax [1]: 440%
B5: His-Trp (peptide)
peptide: HW
